B1: library; numbered along this chain (parent)
chain: MRKPRAAVGSGHRKQAASQEGRQKHAKNNSQAKPSACDGLARQPEEVVLQASVSSYHLFRDVAEVTAFRGSLLSWYDQEKRDLPWRRRAEDEMDLDRRAYAVWVSEVMLQQTQVATVINYYTGWMQKWPTLQDLASASLEEVNQLWAGLGYYSRGRRLQEGARKVVEELGGHMPRTAETLQQLLPGVGRYTAGAIASIAFGQATGVVDGNVARVLCRVRAIGADPSSTLVSQQLWGLAQQLVDPARPGDFNQAAMELGATVCTPQRPLCSQCPVESLCRARQRVEQEQLLASGSLSGSPDVEECAPNTGQCHLCLPPSEPWDQTLGVVNFPRKASRKPPREESSATCVLEQPGALGAQILLVQRPNSGLLAGLWEFPSVTWEPSEQLQRKALLQELQRWAGPLPATHLRHLGEVVHTFSHIKLTYQVYGLALEGQTPVTTVPPGARWLTQEEFHTAAVSTAMKKVFRVYQGQQPGTCMGSKRSQVSSPCSRKKPRMGQQVLDNFFRSHISTDAHSLNSAAQ

Variants of: B1
Test: 8OG:A repair function score (normalized; synonymous = 0, nonsense = -1) (normalized log-likelihood score); higher = more repair activity (WT-like)
Conditions: with 8OG:A DNA repair reporter (GFP) in HEK-293 MUTYH KO cells
Summary of the method: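 After 72 h, viable mCherry+ cells were split into GFP+ (repair) and GFP− bins in three replicates per tile. These cells were MUTYH knockout HEK-293 cells holding lentiviral MUTYH cDNA NNN codon-scan libraries, kept in 10 pg/ml doxycycline and co-transfected with mCherry plus an 8OG:A GFP repair reporter. Sequencing of tile amplicons gave per-tile Rosace fitness scores, normalized into a repair function score anchored on synonymous and nonsense distributions. Synonymous medians were fixed at 0, nonsense at -1, and variants under 300 counts per million at the start were removed.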
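Also: cells sorted at 72 h after reporter transfection.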

| Variant | 8OG:A repair function score |
| --- | --- |
| S71T | -0.0759 |
| M255L | -0.962 |
| M93H | -0.01 |
| A445C | 0.0578 |
| A6N | -0.0265 |
| A457M | -0.585 |
| S52F | -0.0245 |
| H508G | -0.00256 |
| P225G | -0.342 |
| Q111F | -1.08 |
| T179G | 0.108 |
| V211D | -0.988 |
| R156G | -0.287 |
| Q239P | -0.953 |
| V485C | 0.0143 |
| A513K | 0.0278 |
| T476F | 0.0194 |
| N366F | -0.0908 |
| R97M | -0.0359 |
| S298Q | -0.0174 |
| R217L | -1.01 |

| Variant | 8OG:A repair function score |
| --- | --- |
| P264E | -0.25 |
| F504R | -0.00117 |
| F250V | -0.797 |
| S507W | -0.0429 |
| V348W | -1.28 |
| F504T | 0.0122 |
| R81M | -0.492 |
| R157D | -0.365 |
| L369N | 0.0162 |
| L373R | -0.666 |
| P320Y | -0.0806 |
| A137M | -0.417 |
| S486A | 0.00239 |
| G434M | 0.0898 |
| Q521P | -0.0312 |
| V438L | -0.0153 |
| G353F | -0.0929 |
| Q470N | 0.0117 |
| G188P | -0.845 |
| H514L | -0.0137 |
| V65Y | -0.0274 |

| Variant | 8OG:A repair function score |
| --- | --- |
| P443R | -0.143 |
| S344P | -0.301 |
| T511D | -0.0938 |
| A115H | 0.0405 |
| A254G | -0.374 |
| S292D | -0.0297 |
| R398D | -0.249 |
| Y76I | -1.28 |
| F68A | -0.234 |
| A400I | -0.319 |
| N251K | -0.983 |
| D77L | -0.131 |
| Q286K | -0.000545 |
| A513T | 0.000215 |
| G497M | -0.0577 |
| P443G | -0.0689 |
| C489Q | -0.0376 |
| L325N | -0.136 |
| W124H | -0.678 |
| S226I | -0.309 |
| T66H | -0.091 |

| Variant | 8OG:A repair function score |
| --- | --- |
| Q358R | 0.137 |
| G326T | -0.298 |
| Q265C | -0.0499 |
| A63M | -0.0357 |
| V301C | -0.217 |
| L215Q | -0.871 |
| R281N | -0.0901 |
| F330A | -0.791 |
| L241S | -0.626 |
| K390Y | -0.199 |
| E160S | -0.0339 |
| A371R | -0.219 |
| G193D | -0.37 |
| V48W | 0.0774 |
| R506V | -0.0196 |
| Q388K | -0.55 |
| Y428H | -0.753 |
| S136F | -0.278 |
| V500G | 0.00844 |
| A115N | 0.178 |

— the supplement of paper PMC11908140
